Data published in US20240209061A1, “FUSION PROTEINS AND USES THEREOF” (Pfizer Inc., priority 2020, published 2024).

How the values were obtained:
[1] = Thermal forced aggregation (SEC); type: physicochemical; conditions: 24 hours, PBS
Description: To assess the aggregation propensity of variant CD80-Fc fusion proteins, 1 mg/ml of CD80-Fc fusion protein was incubated in PBS at increasing temperatures for 24 hours. The samples were analyzed by SEC on an Agilent 1100 (Agilent Technologies, Germany) HPLC system using a YMC-Pack Diol-200 (YMC, Germany) analytical size exclusion chromatography column and PBS supplemented to 400 mM NaCl as running buffer. % aggregation was calculated from the loss of intact peak area. […] ND=Not Determined.

[2] = Viscosity (Anton Paar rheometer); type: physicochemical; conditions: 20 mM histidine, 8.5% sucrose, pH 5.8
Description: The viscosity of CD80-Fc fusion proteins was assessed at various concentrations. Lower viscosity is desired for subcutaneous administration, and providing optimal syringeability and minimal pain to patients. Viscosity was measured using an Anton Paar rheometer and a CP-25 measuring system at 150 rpm. The sample comprised CD80-Fc fusion proteins in 20 mM histidine and 8.5% sucrose at pH 5.8.

[3] = system: peripheral blood mononuclear cells (PBMC); experiment: RESTORE cytokine release assay in absence of TCR stimulation; type: cell-based, human; set-up: IFNγ: unit not given beside the values
Description: The ability of variant CD80-Fc fusion proteins to promote cytokine release in the absence of TCR stimulation was assessed in the RESTORE (RESetting T cells to Original Reactivity) assay (Römer et al, Blood, 2011). Freshly isolated peripheral blood mononuclear cells (PBMC) from whole blood of several healthy donors were cultured for 48 hours at […] within RPMI1640 media supplemented with 10% autologous plasma, 10 mM HEPES, 1× GlutaMAX, 1× PenStrep, beta2-mercaptoethanol, NEAA and sodium pyruvate. Following the 48-hour incubation, PBMC were pelleted and resuspended at a final concentration of 10^6/ml with indicated soluble drug. Treatment was allowed for 48 hours then supernatant was harvested and assessed in IL-2 and IFNγ ELISA according to manufacturer's protocol (BioLegend).
Positive controls included CD28 superagonist anti-CD28 clone TGN1412 as IgG1 and IgG4 isotypes and anti-CD3. […] Values shown are the average of 3 technical replicates. D=Donor.

[4] = system: Renca murine renal carcinoma tumor cells; experiment: Renca murine renal carcinoma model; type: in vivo, mouse; conditions: for % tumor growth inhibition: Day 18
Description: Renca murine renal carcinoma tumor cells (1 million) were subcutaneously implanted in the hind flank of female Balb/c mice. Five days after tumor implantation, PBS vehicle control or variant CD80-Fc fusion proteins were dosed intravenously at 0.3 and 1 mg/kg (on Day 0 and Day 3) or 3 mg/kg (Day 0, Day 3 and Day 6). Tumor volume was determined by caliper measurements obtained in 2 dimensions and calculated as width^2×length/2. Error bars are depicted as ±SEM.
Pharmacodynamic (PD) modulation with variant CD80-Fc fusion proteins was assessed by measuring tumor-reactive T cells in the spleen using IFNγ ELIspot. Single-cell suspensions were generated from dissociated spleens taken at Day 9 after the first dose of CD80-Fc. Splenocytes were incubated with irradiated tumor cells overnight at 37° C., and the number of IFNγ-producing spots were measured using the IFNγ ELIspot Kit (BD Biosciences #551083).
(§1) Cytotoxic CD8^+ T cells are responsible for killing cancer cells and the measurement of CD8^+ T cells that have infiltrated tumors commonly correlates with efficacy for immune-oncology therapies. For all in vivo studies, tumors were collected ˜1 week after the first dose and dissociated by mincing, followed by incubation in an enzymatic digestion cocktail and homogenization. The resulting cell suspension was filtered and washed, and single cells were stained with antibodies to CD45, CD8, and a viability dye to detect tumor-infiltrating lymphocytes (TILs) by flow cytometry. Data were acquired on a BD LSRFortessa flow cytometer or a Cytek Aurora spectral flow cytometer. Table 31 and FIG. 18 show the amount of tumor-infiltrating CD8+ T cells expressed as a percentage of total immune cells (CD45+). Each value is the average of n=4 mice per group. Treatment with all variant CD80-Fc fusion proteins led to increase in CD8+ TILs in various tumor models.

[5] = system: CT26 murine colorectal carcinoma tumor cells; experiment: CT26 murine colorectal carcinoma model; type: in vivo, mouse; conditions: for Day 10 tumor volume: Days 0 and 3; for % tumor growth inhibition: Day 10
Description: CT26 murine colorectal carcinoma tumor cells (1×10^6) were subcutaneously implanted in the hind flank of female Balb/c mice. When tumors reached ˜100 mm3 (Day 8), mice were randomized. PBS vehicle control or variant CD80-Fc fusion proteins were dosed intravenously at 0.1 and 1.0 mg/kg on Days 0 and 3. Tumor volume was determined by caliper measurements obtained in 2 dimensions and calculated as width^2×length/2. Error bars are depicted as ±SEM.
IFNγ ELIspot was used to measure tumor-reactive T cells in the spleen in mice treated with CD80-Fc fusion proteins at a 1 mg/kg dose.
as §1

For “CD80-K89D-D90K-T28V-T57V-Fc: non-cysteine stabilized variant CD80-Fc fusion protein (K89D, D90K, T28V, T57V)”, the “% aggregation” value ([1]; Table 12, 40° C.) was 0.6%, the “% aggregation” value ([1]; Table 12, 45.3° C.) was 6.0% and the “% aggregation” value ([1]; Table 12, 49.4° C.) was 62.8%. The “% aggregation” value ([1]; Table 12, 54.9° C.) was 72.5%, the Viscosity ([2]; 92.7 mg/ml) was 12.1 cP and the Viscosity ([2]; 119 mg/ml) was 27.8 cP. For the same substance, the IL-2 ([3]; Table 21, D132, 1.9 μg/ml) was 0.0, the IL-2 ([3]; Table 21, D132, 5.6 μg/ml) was 0.3 and the IL-2 ([3]; Table 21, D132, 16.7 μg/ml) was 0.7. For the same substance, the IL-2 ([3]; Table 21, D132, 50 μg/ml) was 3.7, the IL-2 ([3]; Table 21, D149, 1.9 μg/ml) was 0.0 and the IL-2 ([3]; Table 21, D149, 5.6 μg/ml) was 0.0. The IL-2 ([3]; Table 21, D149, 16.7 μg/ml) was 3.7, the IL-2 ([3]; Table 21, D149, 50 μg/ml) was 0.3 and the IL-2 ([3]; Table 21, D379, 1.9 μg/ml) was 2.3. For the same substance, the IL-2 ([3]; Table 21, D379, 5.6 μg/ml) was 0.0, the IL-2 ([3]; Table 21, D379, 16.7 μg/ml) was 0.0 and the IL-2 ([3]; Table 21, D379, 50 μg/ml) was 0.0. The IL-2 ([3]; Table 21, D399, 1.9 μg/ml) was 0.0, the IL-2 ([3]; Table 21, D399, 5.6 μg/ml) was 0.0 and the IL-2 ([3]; Table 21, D399, 16.7 μg/ml) was 0.0. For the same substance, the IL-2 ([3]; Table 21, D399, 50 μg/ml) was 0.0, the IL-2 ([3]; Table 21, D417, 1.9 μg/ml) was 0.0 and the IL-2 ([3]; Table 21, D417, 5.6 μg/ml) was 0.0. For the same substance, the IL-2 ([3]; Table 21, D417, 50 μg/ml) was 0.0, the IL-2 ([3]; Table 21, D518, 1.9 μg/ml) was 1.3 and the IL-2 ([3]; Table 21, D518, 5.6 μg/ml) was 0.3. For the same substance, the IL-2 ([3]; Table 21, D518, 16.7 μg/ml) was 0.0, the IL-2 ([3]; Table 21, D518, 50 μg/ml) was 3.0 and the IFNγ ([3]; Table 22, D132, 1.9 μg/ml) was 0.0. For the same substance, the IFNγ ([3]; Table 22, D132, 5.6 μg/ml) was 0.0, the IFNγ ([3]; Table 22, D132, 16.7 μg/ml) was 41.3 and the IFNγ ([3]; Table 22, D132, 50 μg/ml) was 0.0. It also gave an IFNγ ([3]; Table 22, D149, 1.9 μg/ml) of 0.0, an IFNγ ([3]; Table 22, D149, 5.6 μg/ml) of 0.0 and an IFNγ ([3]; Table 22, D149, 16.7 μg/ml) of 0.0. The IFNγ ([3]; Table 22, D149, 50 μg/ml) was 12.3, the IFNγ ([3]; Table 22, D379, 1.9 μg/ml) was 2.0 and the IFNγ ([3]; Table 22, D379, 5.6 μg/ml) was 0.0. The IFNγ ([3]; Table 22, D379, 50 μg/ml) was 0.0, the IFNγ ([3]; Table 22, D399, 1.9 μg/ml) was 0.0 and the IFNγ ([3]; Table 22, D399, 5.6 μg/ml) was 0.0. The IFNγ ([3]; Table 22, D399, 16.7 μg/ml) was 0.0, the IFNγ ([3]; Table 22, D399, 50 μg/ml) was 13.7 and the IFNγ ([3]; Table 22, D417, 1.9 μg/ml) was 0.0. The IFNγ ([3]; Table 22, D417, 5.6 μg/ml) was 94.3, the IFNγ ([3]; Table 22, D417, 16.7 μg/ml) was 0.0 and the IFNγ ([3]; Table 22, D417, 50 μg/ml) was 0.0. It also gave an IFNγ ([3]; Table 22, D518, 1.9 μg/ml) of 0.0, an IFNγ ([3]; Table 22, D518, 5.6 μg/ml) of 0.0 and an IFNγ ([3]; Table 22, D518, 16.7 μg/ml) of 0.0. The IFNγ ([3]; Table 22, D518, 50 μg/ml) was 0.0.

With “CD80-D90Q-Fc: variant CD80 ECD (D90Q) fused to human IgG1 Fc” the “% aggregation” value ([1]; Table 11, 40° C.) was 81.6%, the “% aggregation” value ([1]; Table 11, 45.3° C.) was 89.5% and the “% aggregation” value ([1]; Table 11, 49.4° C.) was 89.5%. For the same substance, the IFNγ ([3]; Table 20, D222, 1 μg/ml) was 3.3, the IFNγ ([3]; Table 20, D222, 10 μg/ml) was 4.0 and the IL-2 ([3]; Table 20, D222, 10 μg/ml) was 9.0. It also gave an IFNγ ([3]; Table 20, D281, 1 μg/ml) of 3.3, an IL-2 ([3]; Table 20, D281, 1 μg/ml) of 2.3 and an IFNγ ([3]; Table 20, D281, 10 μg/ml) of 3.3. It also gave an IL-2 ([3]; Table 20, D281, 10 μg/ml) of 2.3, an IFNγ ([3]; Table 20, D462, 1 μg/ml) of 8.3 and an IL-2 ([3]; Table 20, D462, 1 μg/ml) of 1.7. The IFNγ ([3]; Table 20, D462, 10 μg/ml) was 10.3, the IL-2 ([3]; Table 20, D462, 10 μg/ml) was 1.7 and the IFNγ ([3]; Table 20, D547, 1 μg/ml) was 3.3. For the same substance, the IL-2 ([3]; Table 20, D547, 1 μg/ml) was 9.0, the IFNγ ([3]; Table 20, D547, 10 μg/ml) was 7.7 and the IL-2 ([3]; Table 20, D547, 10 μg/ml) was 3.3. For the same substance, the “Number of tumor-free mice” value ([4]; 0.3 mg/kg) was 4/10, the “Day 18 tumor volume” value ([4]; 0.3 mg/kg IV, Day 0 and 3) was 248.2 ± 126.1 mm^3 and the “% tumor growth inhibition” value ([4]; 0.3 mg/kg) was 81.4%. The “Number of tumor-free mice” value ([4]; 1 mg/kg) was 4/10, the “Day 18 tumor volume” value ([4]; 1 mg/kg IV, Day 0 and 3) was 157.6 ± 64.2 mm^3 and the “% tumor growth inhibition” value ([4]; 1 mg/kg) was 89.6%. For the same substance, the “Number of tumor-free mice” value ([4]; 3 mg/kg) was 8/10, the “Day 18 tumor volume” value ([4]; 3 mg/kg IV, Day 0, 3 and 6) was 72.0 ± 41.6 mm^3 and the “% tumor growth inhibition” value ([4]; 3 mg/kg) was 97.1%. For the same substance, the “# IFNγ-producing spots (splenic tumor-reactive T cells)” value ([4]; 3 mg/kg, spleen Day 9, average of n = 4 mice) was 334.75, the “CD8^+ T cell infiltrates (% CD45)” value ([4]; Renca, 3 mg/kg, ~1 week after first dose, n=4) was 24.2 % CD45 and the “Number of tumor regressions” value ([5]; 0.1 mg/kg) was 0/10. For the same substance, the “Day 10 tumor volume” value ([5]; 0.1 mg/kg IV) was 728.3 mm^3, the “% tumor growth inhibition” value ([5]; 0.1 mg/kg) was 39.20% and the “Number of tumor regressions” value ([5]; 1 mg/kg) was 6/10. For the same substance, the “Day 10 tumor volume” value ([5]; 1 mg/kg IV) was 295.8 mm^3, the “% tumor growth inhibition” value ([5]; 1 mg/kg) was 75.31% and the “# IFNγ-producing spots (tumor-reactive T cells in spleen)” value ([5]; 1 mg/kg, average of n = 4 mice) was 341.6875. For the same substance, the “CD8^+ T cell infiltrates (% CD45)” value ([5]; CT26, 1 mg/kg, n=4) was 27.4 % CD45.
